In this test the target is h4-1-BB on a genetically engineered Jurkat T cell line (Promega 4-1BB Bioassay) (human) (UniProt Q07011). Put plainly: cell-based or functional assay. The conditions noted are these: scale: relative luciferase.
Sequence of h4-1-BB on a genetically engineered Jurkat T cell line (Promega 4-1BB Bioassay) (human) (Q07011 24-255, change not shown): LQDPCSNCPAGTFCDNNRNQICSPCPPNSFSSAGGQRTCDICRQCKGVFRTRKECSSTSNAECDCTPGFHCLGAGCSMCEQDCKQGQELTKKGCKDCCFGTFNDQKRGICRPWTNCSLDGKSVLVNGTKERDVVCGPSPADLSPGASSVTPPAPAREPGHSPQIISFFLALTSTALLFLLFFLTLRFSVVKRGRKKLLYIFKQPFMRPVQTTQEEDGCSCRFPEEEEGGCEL

Take “His-tagged h4-1BBL cross-linked with an Fc (from UniProt P41273 71-254) (ligand)”: the luciferase expression by Jurkat-h4-1BB cells worked out at 1.

Source of the values: US20230059344A1.
